Data taken from patent US20250313626A1 (HARBOUR BIOMED SHANGHAI, published 2025).

T1: CD200R1a on PathHunter Jurkat CD200R1a signaling cells (Eurofins DiscoverX, 93-1136C19) (human, UniProt Q8TD46 25-348)
T1 sequence: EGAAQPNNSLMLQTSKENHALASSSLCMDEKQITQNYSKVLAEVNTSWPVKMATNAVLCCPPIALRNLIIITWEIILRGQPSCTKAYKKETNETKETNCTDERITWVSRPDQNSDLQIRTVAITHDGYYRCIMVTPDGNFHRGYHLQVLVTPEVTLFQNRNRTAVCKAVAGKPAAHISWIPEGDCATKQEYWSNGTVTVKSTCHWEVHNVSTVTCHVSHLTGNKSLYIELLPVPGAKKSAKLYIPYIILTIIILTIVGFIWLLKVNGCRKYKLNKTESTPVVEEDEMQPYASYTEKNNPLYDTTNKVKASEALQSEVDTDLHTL

T2: Cynomolgus macaques CD200R1 isoform a on CHOK1 cells (CHOK1/cynoCD200R1a) (Cynomolgus macaques)
T2 chain: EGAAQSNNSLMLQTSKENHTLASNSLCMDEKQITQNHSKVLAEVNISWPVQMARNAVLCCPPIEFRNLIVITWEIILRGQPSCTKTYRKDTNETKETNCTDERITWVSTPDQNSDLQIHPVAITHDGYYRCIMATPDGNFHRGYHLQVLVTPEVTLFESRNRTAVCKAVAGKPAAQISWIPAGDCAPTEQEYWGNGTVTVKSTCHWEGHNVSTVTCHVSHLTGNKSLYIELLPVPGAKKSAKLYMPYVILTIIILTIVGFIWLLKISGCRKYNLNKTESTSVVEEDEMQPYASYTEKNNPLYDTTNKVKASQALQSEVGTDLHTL

T3: human CD200R1a protein (soluble recombinant) (human, UniProt Q8TD46 29-265)
T3 construct: Soluble protein used in BLI; also called human CD200R1 isoform a; not shown: His tag implied by capture on anti-Penta-HIS biosensors
T3 sequence: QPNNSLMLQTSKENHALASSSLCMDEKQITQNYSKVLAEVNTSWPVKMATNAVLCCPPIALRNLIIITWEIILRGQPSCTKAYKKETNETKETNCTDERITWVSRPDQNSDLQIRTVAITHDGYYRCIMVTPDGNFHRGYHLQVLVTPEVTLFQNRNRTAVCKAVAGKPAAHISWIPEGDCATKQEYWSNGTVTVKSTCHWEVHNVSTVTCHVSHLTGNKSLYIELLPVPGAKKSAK

T4: human CD200R1 isoform a on CHOK1 cells (CHOK1/hCD200R1a) (human, UniProt Q8TD46 25-348)
T4 construct: also called CHOK1/CD200R1a
T4 sequence: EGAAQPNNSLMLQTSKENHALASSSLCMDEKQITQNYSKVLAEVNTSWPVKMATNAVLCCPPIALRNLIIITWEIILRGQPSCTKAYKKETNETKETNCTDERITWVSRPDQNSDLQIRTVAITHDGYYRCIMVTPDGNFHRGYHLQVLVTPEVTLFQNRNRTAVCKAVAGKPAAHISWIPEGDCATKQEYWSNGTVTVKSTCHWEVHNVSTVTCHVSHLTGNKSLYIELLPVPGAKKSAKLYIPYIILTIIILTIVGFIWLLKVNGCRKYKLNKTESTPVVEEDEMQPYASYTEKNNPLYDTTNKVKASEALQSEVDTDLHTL


Legend:
[1] = biological target: T1, CD200R1a on PathHunter Jurkat CD200R1a …; experiment: cell-based or functional assay
[2] = biological target: T2, Cynomolgus macaques CD200R1 isoform a …; experiment: flow cytometry, CHOK1/cynoCD200R1a cells (APC-A Mean); table beside the curves
[3] = biological target: T3, human CD200R1a protein (soluble …); experiment: BLI in-tandem competition on His-captured human CD200R1a; row = 1st Ab (400 nM); competitor (2nd Ab) PR007973
Protocol: To determine if the anti-CD200R1 antibodies bind to human CD200R1a on different or approximate binding epitopes, epitope competition experiments for the anti-CD200R1 antibodies were performed by the ForteBlio Octet® RED96e platform. […] The in-tandem competition assay format was applied, and it contained two association steps. Firstly, the antigen-loaded biosensors bound to each antibody (i.e., First antibody, 1st Ab) at a saturating concentration of 400 nM for 300 seconds to reach equilibrium and then secondly bound to the competing antibodies (i.e., Second antibody, 2nd Ab) of 400 nM for 300 seconds. The second binding signals are recorded as the 100% signal of each antibody when the first antibodies are replaced by kinetic buffer. All the binding data were analyzed using ForteBlio Data Analysis 11.0 software. The inhibition rate was calculated by the following formula: […]

[4] = biological target: T2, Cynomolgus macaques CD200R1 isoform a …; experiment: flow cytometry, CHOK1/cynoCD200R1a cells; table beside the curves, head without unit, x axis Log [Ab] (nM)
Protocol: (§1) This example is intended to investigate the in vitro binding activity of human anti-CD200R1 monoclonal antibodies to human/Cynomolgus macaques CD200R1a expressed on the surface of cells. The anti-CD200R1 antibodies were produced as described in Example 3.4 and the binding experiments at the cell level were performed using CHOK1/hCD200R1a and CHOK1-cynoCD200R1a.
(§2) Briefly, CHOK1/hCD200R1a cells and CHOK1-cynoCD200R1a cells were digested, and collected, and then were resuspended in PBS containing 2% BSA, respectively. The cell density was adjusted to 1×10⁶ cells/mL. The cells were seeded in a 96-well V-bottom plate (Corning, #3894) at 100 μL/well, followed by the addition of test antibodies and reference antibodies in a series diluted concentration, each at 100 μL/well. The cells were incubated away from light at 4° C. for 1 h. Thereafter, the cells in each well were rinsed twice with 100 μL of pre-cooled PBS containing 2% BSA, and centrifuged at 500 g at 4° C. for 5 min, and then the supernatant was discarded. […] Finally, the cells in each well were resuspended in 200 μL of pre-cooled PBS containing 2% BSA, and the fluorescence signal values were read using a BD CantoII flow cytometer.

[5] = biological target: T2, Cynomolgus macaques CD200R1 isoform a …; experiment: flow cytometry, CHOK1/cynoCD200R1a cells; table beside the curves
Protocol: as §1, §2

[6] = biological target: T4, human CD200R1 isoform a on CHOK1 cells …; experiment: flow cytometry, CHOK1/hCD200R1a cells (FITC-Mean); table beside the curves
Protocol: as §1
Briefly, CHOK1/hCD200R1a cells and CHOK1-cynoCD200R1a cells were digested, and collected, and then were resuspended in PBS containing 2% BSA, respectively. The cell density was adjusted to 1×10⁶ cells/mL. The cells were seeded in a 96-well V-bottom plate (Corning, #3894) at 100 μL/well, followed by the addition of test antibodies and reference antibodies in a series diluted concentration, each at 100 μL/well. The cells were incubated away from light at 4° C. for 1 h. Thereafter, the cells in each well were rinsed twice with 100 μL of pre-cooled PBS containing 2% BSA, and centrifuged at 500 g at 4° C. for 5 min, and then the supernatant was discarded. 100 μL of fluorescent secondary antibody (Alexa Fluor 488-conjugated AffiniPure Goat Anti-Human IgG, Fcγ Fragment Specific, Jackson, #109-545-098, diluted in a 1:1000 ratio) was added in each well, and the plate was incubated away from light at 4° C. for 1 h. The cells in each well were rinsed twice with 100 μL of pre-cooled PBS containing 2% BSA, and centrifuged at 500 g at 4° C. for 5 min, and then the supernatant was discarded. Finally, the cells in each well were resuspended in 200 μL of pre-cooled PBS containing 2% BSA, and the fluorescence signal values were read using a BD CantoII flow cytometer.

Binder	EC50 [2] [nM]	MFI (MAX) [2]	EC50 [4] [nM]	MFI(Max) [5]	IC50 of the inhibition of CD200-induced PathHunter Jurkat CD200R1a luminescence (CHOK1/hCD200 cells as CD200 source) [1] [nM]	Inhibition ratio (%) [3] [%]	MFI(Max) [6]
PR006480 (antibody, human IgG1, kappa, L234A L235A, also called PR6480) heavy: not shown light: DIQMTQSPPSLSASVGDRVTITCRASQSISSYLNWFQQKAGKAPKLLISATSNLQSGVPSRFSGSGSGTDFTLTISSLQPEDLATYYCQQSYSSPYTFGQGTKVEIKRTVAAPSVFIFPPSDEQLKSGTASVVCLLNNFYPREAKVQWKVDNALQSGNSQESVTEQDSKDSTYSLSSTLTLSKADYEKHKVYACEVTHQGLSSPVTKSFNRGEC	19.5	34600	–	–	0.654	–	–
PR007973 (antibody, human IgG1, kappa, V domains shown, PTM variant of PR006839 (human IgG1)) VH: QVQLVESGGGVVQPGRSLRLSCAASGFTFSSYGFHWVRQAPGKGLEWLGIIWSDASNKYYADSVKGRFTISRDNSKNTLYLQMNSLRAEDTAVYYCARDRIVGEGFDYWGQGTLVTVSS VL: not shown	–	–	–	–	–	103	19200
PR002906 (antibody, V domains shown, also called recombinant IgG1 antibody of huDX182) VH: QVQLQESGPGLVKPSETLSLTCTVSGYTITSGYDWSWIRQPPGKGLEWIGYINYGGSTNYKPSLGSRVTISVDTSKNQFSLKLSSVTAADTAVYYCARYNEYKSYIYDWYFDFWGQGTLVTVSS VL: DIQMTQSPSSLSASVGDRVTITCKASKNIRSYLAWYQQKPGKAPKLLIYSGSTLHSGVPSRFSGSGSGTDFTLTISSLQPEDFATYYCQQHHEYPLTFGQGTKVEIKR	21.4	26800	15.5	6440	–	–	13900

Now from value to binder, other results behind:

EC50 [2] [nM]	MFI (MAX) [2]	EC50 [4] [nM]	MFI(Max) [5]	Binder	IC50 of the inhibition of CD200-induced PathHunter Jurkat CD200R1a luminescence (CHOK1/hCD200 cells as CD200 source) [1] [nM]	Inhibition ratio (%) [3] [%]	MFI(Max) [6]
7.37	53300	–	–	PR007221 (antibody, human IgG1, kappa, PTM variant of PR006895 (human IgG1)) heavy: not shown light: DIQLTQSPPSLSASVGDRVTITCRASQSISSYLNWFQQKAGKAPKLLISATSNLQSGVPSRFSGSGSGTDFTLTISSLQPEDLATYYCQQTLSSPYTFGQGTKVEIKRTVAAPSVFIFPPSDEQLKSGTASVVCLLNNFYPREAKVQWKVDNALQSGNSQESVTEQDSKDSTYSLSSTLTLSKADYEKHKVYACEVTHQGLSSPVTKSFNRGEC	–	95.6	–
8.11	54200	–	–	PR007223 (antibody, human IgG1, kappa, PTM variant of PR006895 (human IgG1)) heavy: not shown light: DIQLTQSPPSLSASVGDRVTITCRASQSISSYLNWFQQKAGKAPKLLISATSNLQSGVPSRFSGSGSGTDFTLTISSLQPEDLATYYCQQTYSSPYTFGQGTKVEIKRTVAAPSVFIFPPSDEQLKSGTASVVCLLNNFYPREAKVQWKVDNALQSGNSQESVTEQDSKDSTYSLSSTLTLSKADYEKHKVYACEVTHQGLSSPVTKSFNRGEC	0.578	99.6	–
–	–	4.2	19900	PR005509 (antibody, human IgG1, kappa, L234A L235A, V domains shown) VH: QVQLVESGGGVVQPGRSLRLSCAASGFTFSSYGFHWVRQAPGKGLEWLGLIWSDGSNKYYADSVKGRFTISRDNSKNTLYLQMNSLRAEDTAVYYCARDRIVGAGFDYWGQGTLVTVSS VL: not shown	–	–	–
